Source: patent US20150203577A1 (Chugai, published 2015)

T1: mouse FcγRIII extracellular domain, C-terminal His tag (mouse, UniProt P08508 31-215)
T1 construct: also called mFcγRIII; mFcgRIII
T1 chain: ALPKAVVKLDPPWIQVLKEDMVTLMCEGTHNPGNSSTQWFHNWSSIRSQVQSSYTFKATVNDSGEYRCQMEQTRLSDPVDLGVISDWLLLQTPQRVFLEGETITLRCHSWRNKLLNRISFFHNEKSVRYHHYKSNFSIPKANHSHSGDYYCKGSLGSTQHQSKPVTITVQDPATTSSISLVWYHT

T2: mouse FcγRII extracellular domain, C-terminal His tag (mouse, UniProt P08101 30-210)
T2 construct: also called mFcγRII; mFcgRII
T2 sequence: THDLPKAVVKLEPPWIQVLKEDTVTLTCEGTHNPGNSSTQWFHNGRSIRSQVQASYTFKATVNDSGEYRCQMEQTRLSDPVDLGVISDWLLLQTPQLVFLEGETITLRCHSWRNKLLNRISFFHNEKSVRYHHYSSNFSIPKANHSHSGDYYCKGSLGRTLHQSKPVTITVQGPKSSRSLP


Assays:
[1] = target: T1, mouse FcγRIII extracellular domain, …; assay: SPR (Biacore T200), antibody captured on Protein L, mFcγR analyte
[2] = target: T2, mouse FcγRII extracellular domain, …; assay: as above

Kd [1]	relative mFcγRIII-binding activity (mIgG1 = 1) [1]	Kd [2]	relative mFcγRII-binding activity (mIgG1 = 1) [2]	Binder
300 nM	0.9 fold vs H237-mIgG1/MRAL-k0	5.12 nM	41 fold vs H237-mIgG1/MRAL-k0	H237-MB869/MRAL-k0 (antibody, mouse IgG1, kappa, copies: 2 + 2) heavy: QVQLQESGPGLVKPSETLSLTCAVSGHSISHDHAWSWVRQPPGEGLEWIGFISYSGITNYNPSLQGRVTISRDNSKNTLYLQMNSLRAEDTAVYYCARSLARTTAMDYWGEGTLVTVSSAKTTPPSVYPLAPGSAAQTNSMVTLGCLVKGYFPEPVTVTWNSGSLSSGVHTFPAVLQSDLYTLSSSVTVPSSTWPSETVTCNVAHPASSTKVDKKIVPRDCGCKPCICEPNEVEIVFIFPPKPKDVLTITLTPKVTCVVVDISDDDPEVQFSWFVDDVEVHTAQTQPREEQFNSTFRSVSELPIMHQDWLNGKEFKCRVNSDGFPAPIYKTISKTKGRPKAPQVYTIPPPKEQMAKDKVSLTCMITDFFPEDITVEWQWNGQPAENYKNTQPIMDTDGSYFVYSKLNVQKSNWEAGNTFTCSVLHEGLHNHHTEKSLSHSPGK light: not shown
169 nM	1.7 fold vs H237-mIgG1/MRAL-k0	3.4 nM	61.8 fold vs H237-mIgG1/MRAL-k0	H237-MB871/MRAL-k0 (antibody, mouse IgG1, kappa, copies: 2 + 2) heavy: QVQLQESGPGLVKPSETLSLTCAVSGHSISHDHAWSWVRQPPGEGLEWIGFISYSGITNYNPSLQGRVTISRDNSKNTLYLQMNSLRAEDTAVYYCARSLARTTAMDYWGEGTLVTVSSAKTTPPSVYPLAPGSAAQTNSMVTLGCLVKGYFPEPVTVTWNSGSLSSGVHTFPAVLQSDLYTLSSSVTVPSSTWPSETVTCNVAHPASSTKVDKKIVPRDCGCKPCICEPNEVEIVFIFPPKPKDVLTITLTPKVTCVVVDISDDDPEVQFSWFVDDVEVHTAQTQPREELFNSTFRSVSELPIMHQDWLNGKEFKCRVNSDGFPAPIEKTISKTKGRPKAPQVYTIPPPKEQMAKDKVSLTCMITDFFPEDITVEWQWNGQPAENYKNTQPIMDTDGSYFVYSKLNVQKSNWEAGNTFTCSVLHEGLHNHHTEKSLSHSPGK light: not shown
147 nM	1.9 fold vs H237-mIgG1/MRAL-k0	2.88 nM	72.8 fold vs H237-mIgG1/MRAL-k0	H237-MB875/MRAL-k0 (antibody, mouse IgG1, kappa, copies: 2 + 2) heavy: QVQLQESGPGLVKPSETLSLTCAVSGHSISHDHAWSWVRQPPGEGLEWIGFISYSGITNYNPSLQGRVTISRDNSKNTLYLQMNSLRAEDTAVYYCARSLARTTAMDYWGEGTLVTVSSAKTTPPSVYPLAPGSAAQTNSMVTLGCLVKGYFPEPVTVTWNSGSLSSGVHTFPAVLQSDLYTLSSSVTVPSSTWPSETVTCNVAHPASSTKVDKKIVPRDCGCKPCICEPNEVEIVFIFPPKPKDVLTITLTPKVTCVVVDISDDDPEVQFSWFVDDVEVHTAQTQPREELFNSTFRSVSELPIMHQDWLNGKEFKCRVDSDGFPAPIEKTISKTKGRPKAPQVYTIPPPKEQMAKDKVSLTCMITDFFPEDITVEWQWNGQPAENYKNTQPIMDTDGSYFVYSKLNVQKSNWEAGNTFTCSVLHEGLHNHHTEKSLSHSPGK light: not shown
269 nM	1 fold vs H237-mIgG1/MRAL-k0	5.44 nM	38.6 fold vs H237-mIgG1/MRAL-k0	H237-MB870/MRAL-k0 (antibody, mouse IgG1, kappa, copies: 2 + 2) heavy: QVQLQESGPGLVKPSETLSLTCAVSGHSISHDHAWSWVRQPPGEGLEWIGFISYSGITNYNPSLQGRVTISRDNSKNTLYLQMNSLRAEDTAVYYCARSLARTTAMDYWGEGTLVTVSSAKTTPPSVYPLAPGSAAQTNSMVTLGCLVKGYFPEPVTVTWNSGSLSSGVHTFPAVLQSDLYTLSSSVTVPSSTWPSETVTCNVAHPASSTKVDKKIVPRDCGCKPCICEPNEVEIVFIFPPKPKDVLTITLTPKVTCVVVDISDDDPEVQFSWFVDDVEVHTAQTQPREEQFNSTFRSVSELPIMHQDWLNGKEFKCRVNSDGFPAPIERTISKTKGRPKAPQVYTIPPPKEQMAKDKVSLTCMITDFFPEDITVEWQWNGQPAENYKNTQPIMDTDGSYFVYSKLNVQKSNWEAGNTFTCSVLHEGLHNHHTEKSLSHSPGK light: not shown
